In the nanobody polyreactivity screen of Harvey et al. (2022):

Assay: yeast display, Sf9 membrane polyspecificity reagent, FACS + sequencing; frameworks hold sequencing errors
Procedure, shortened: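 Galactose induction of a Saccharomyces cerevisiae BJ5465 synthetic nanobody display library ran 36–48 hours. The cells were then stained for 1 hour at 4 °C with 10% biotinylated, detergent-solubilized Sf9 membrane reagent, pulled down on streptavidin microbeads and FACS-sorted into low and high (top ~1%) gates on expression and reagent-binding fluorescence. Labels for polyreactivity follow the gate of origin.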

Sequence	polyreactivity (PSR sort gate)
QDQLVESGGGLVQAGCSLRLSCDASGSTSYGYAMGWYRQAPGKERELVASISYSGSSTYYADSVKGRFTFSRDNAKNTVYLQMNSLKPEDTAVYYCNAKVYPCVGPKHRYDYWGQCTQVTVSS	low polyreactivity
QVQLVESGGGLVQAGGSLPLSCAASGSTLSGYAMGWYRQAPGKEREMVAAITKSGGRTYYADSVKGRFTISRDNAKNTVYLQMNSLKPEDTAVYYCAKAYPGTYREYDYWGQGTQVTVSS	high polyreactivity
QVQLVESGGGLVQAGGSLRLSCAASGSTFPYNAMGWYRQAPGQERELVAAITRGGRTYYADSLKGRFTISRDNSKNTVYLQMISLKPEDTAVYYCAAYYSGYSKKFDYWGQGTQVTVSS	high polyreactivity
QVQLVESGGGLVQAGGSLRLSSAATGSIIGFYAMGWYRQAPGKERELVAAITRGGGSTFYADSVKGRFTISRDNAKNTVYLQINSLKPEDTAVYYCAATVYRYHGPGYYYWGQGTQVTVSS	high polyreactivity
QVQLVESGGGLVQAGGSLRLSCAASGSTFYHYAMGWYRQAPGKERELVATISRRGGSTYYADSVKGRFTISRDNAKNTVYLQMNSLKPEDTAVYYCAAEYARSSRYKISSEMYYWGQGTQVTVSS	high polyreactivity
QVQLVESGGGLVQAGGSLRLSCAASGFTCYIYAMGWYRQAPGKERELVAGITSGGTNYADSVKGRFTISRDNAKNTVYLQINSLKPEDTAVYYCATDYYDDVTIGYDYWGQGTQVTFSS	low polyreactivity
QVQLVESGGGLVQAGGSLRLRCAASGRTFSAYAMGWYRQAPGKERELVAAISRRGGSTYYADSVKWRFTISRDNAKNTVYFQMNSLKPSDTAVYYCAADVYKQYGFYYWGQVTQVTVSS	high polyreactivity
QVQLVESGGGLVQAGGSLRLSCAASGRTIAINAMGWYRQAPGKEREFVAAITSRSSRTYYADSVKGRFTISRDNAKNTVYLQMNSLKPEDTAVYYCARGSELGYYAWVYYWGQGTQVTVSS	high polyreactivity
QVQLVESGGGLVHAGGSLRLSCAASVSIFASNAMGWYRQAPGKERELVAAITSSGRTKYADSVKGRFTISRDNAKNTVYLQMNSLNPEDTAVYYCAAVYYTYFGRYDYWGQGTQVTVSS	high polyreactivity
QVQLVESGGGLVQAGGSLRLSCAASGIIFFWNAMGWYRQAPGKERELVAAISSGGSTFADSVKGRFTISRDNAKNTVYLQMNSLKPEDTAVYYCAARFYHGYRPYIAIYGYGYWGQGTQVTVSS	low polyreactivity
QVQLVESGGGLVQAGGSLRLSCAASGRIIYPNTMGWYRQAPGKERELVAAINRLGGSTYYADSVKGRFTISRDYAKNTVYLQMNSLIPEDTAVYYCAAYTTWTRSGYYDFTSYFWGQGTQVTVSS	high polyreactivity
QVQLVESGGGLVQAGGSLRLSCAASGRIFPYYVMGWYRQAPGKERELVAAISRSGSSTYYADSVKGRFTISRDNAKNTVYLQMNSLKPEDTAVYYCAADYNWSPYYTRGDYWGQGTQVTVSS	high polyreactivity
QVHLVESGGGLVQAGGSLRLSCSASGIIFYVYTMGWYRQARGKERELVAAISGSGGSTTYADSVKGRFTISRDNAKNTVYLQMNSLKPEDTAVYYCNAKKWFYRWCKFSEFDYWGQGTQVTVSS	high polyreactivity
QVQLVESGGGLVQAGGSLRLSCAASGRTFAKSAMGWSRQAPGKERELVAAIRWSGGSTYYADSVKARFTISRDNAKNTVYLQMNSLKPEDTAVYYCATERFLLGLGYDYWGQGTQVTVSS	high polyreactivity
QVQLVESGGGLVQAGGSLRLSCAASGRIFRENAMGWYRQAPGKERELVAAINRSGSRTYYADSVKGRFTISRDNAKNTVYLQMNSLKPEDTAVYYCATASSIRYDYWGQGTQVTVSS	high polyreactivity
QVQLVESGGGLVQAGGSLRLSCAASGSIFQKYAMGWYRPAPGKERELVAAISSGGGRTYYADSVKGRFTISRDNAKNTVYLQMNSLKPEDTAVYYCAARGSYTSIFDYWGQGTQVTVSS	high polyreactivity
QVQLVESGGRLVQAGGSLRLSCAASGSTFRGYAMGWYIPAPGKEWELVATITSGGSTKYADSVKGRFTISRDNAKNTVYLQMNSLKPEDTAVYYCNAVPRSWSPYRHWFDYWGQGTQVTVSS	low polyreactivity
QVQLVESGGGLVQAGVSLRLSCAASVSIFSGNTMGWYRQAPGKERELVAAIRWRGGTYYADSVKGRFTISRDNAKNTVYLQMNSLKPEDPAVYYCATSVKPSYDYWGQGTQVTVSS	low polyreactivity
QFQLVESGGGLVQAGGSLRLSCAASGRIFRYYDMGWYRQAPGKERELVAAISFSGGSTYYADSVKGRFTISRDNAKNTVYLQMNSLKQEDTAVYYCAAGWRALYLSTYDYWGQGTQVTVSS	high polyreactivity
QVQLVESGGGLVQAGGSLRLSCAASGSIFLSNAMVWYRQAPGKERDLVADIDWTGGDTYYADSVKGRFTISRDNAKNTVYLQMNSLKPEDTAVYYCAADYGSRNLLTEYGYWGQGTQVTVSS	low polyreactivity
QVQLVESGGGLVQAGGSLRLSCAASGSIFNYNDMGWYRQAPGKERELVAAIDSSGTSTYYADSVKGRFTISRDNAKNTVYLQMNSLKPEDTAVYYCNADSSLGFGYWGQGTQVTVSS	low polyreactivity
QVQLVESGGGLVQAGGSLRLSCAASGLTYSNAMGWYRQAPGKERELVAAISWRGGRTYYADSVKGRFTISRDNAKNTVYLQMNSLKPEDTAVYYCAKYAHGHKWYGYWGQGTQVTVSS	low polyreactivity

Sequence	polyreactivity (PSR sort gate)
QVQLVESGGGLVQAGGSLRLSCAASGRNFSWNAMGWYRQAPGKERELVAAISRGASTNYADSVKGRFTISRDNAKNTDYLQMNSLKPEDTAVYYCNAVGPSLIYTYELSPTFDYWGQGTQVTVSS	low polyreactivity
QVQLVESGGGLVHAGGSLRLSCAASGSTLRGYVMGWYRQAPGKERELVAAITQRAGSTYYADSVKGRFTISRDNAKNPVYLQMNSLKAEDTAVYYCNVDRHYAVESGYWGQGTQVTVSS	high polyreactivity
QVQLVDSGGGLVQAGGSLRLSCAASGRTFTQNAKGWYRPAPGKERELVAAIRRGGSTNYADSVKWRFTISRDNAKNTVYLQMKSLKPEDTAVYYCATECYYGFSYRYDFWGLGTQVTVSS	high polyreactivity
QVQLVESGGGLVQAGGSLRLSCAASGIIFRYNAMGWYRQAPGKERELVADITFSVGSTNYADSVKGRFTISRDNAKNTVYLQMNSLKPEDTAVYYCAAKFHSTYGNDDWGQGTQVTVSS	low polyreactivity
QVQLVESGGGLVQAGGSLRLSCDASGRIYLYAMGWYRQAPGKERELVAAITTRAGRTYYADSVKGRFTISRDNAKNTVYFQMNSLKPEDNAVSYCAADGTRYPAYGYWGQGTQVTVSS	low polyreactivity
QVQLVESGGGLLQAGGSLRLSCAASGIIFFYYSMGWYRQAPGKERELVAAISSDGSTYYADSVKGRFTSSRDNAKNTVYLQMNSLKPEDTAVDYCAAQYNHWWEYDYWGQGTQVTVSS	low polyreactivity
QVQLVESGGGLVQAGGSLRLSCAASGFIFDYYAMGWYRQAPGKERELVASISGDDGRTYYADSVKGRFTISRDNAKNTVYLQMNSLKPEDTAVYYCNAEWGVLNYDYWGQGTQVTVSS	low polyreactivity
QVQLVESGGGLVQAGGSLRLSCAASGSIFTSYAMGWYRQAPGKERELVAAITSTGGSTYYADSVKGRFTISRENAKNTVYLQMNSLKPEDTAVYYCNADGGTPYDYWGQGTQVTVSS	low polyreactivity
QVQLVESGGGLVQAGGSLRLSCAASGRIFARYAMGWYRQAPGKERELVAAITTSGDSTYYADSVKGRFTISRDNAKNTVYLQMNSLKPEDTAVYYCAAERRYGRYYRLVRLLGQGTQVTVSS	high polyreactivity
QVQLVESGGGLVHAGGSLRLSCAASGIIFPYNLMGWYRQAPGKERELVADITRGAASTYYADSVKGRFTISRVNAKNTVYFQMNRLKTEDTAVYFCNADGTWRTYNFWGQGTQVTVSS	high polyreactivity
QVQLVESGGGLVQAGGSLRLSCAASGFIFGNNDMGWYRQAPGKERELVAGITWSGSSTYYADSVKGRFTISRDNAKNTVYLQMNSLKPEDTAVYYCNRVFTWRYGYRYEYWGQGTQVTVSS	high polyreactivity
QVQLVESGGGLVQAGGSLRLSCAASGLTFSVYTMGWYRQAPGKERELVAAITTSGGRTYYADSVKGRFTISRDNAKNTVYLQMNSLKPEDTAVYYCAAVRTGDTTGTMGYWGQGTQVTVSS	high polyreactivity
QVQLVESGGGLVQAGGSLRLSCAASGIIIAYYAMGWYRQAPGKERVLVATISSGGRTKYADSVKGRFTISRDNAKNTVYLQMNSLKPEDTAVYYCNTDRYFRRYYWYDYWGQGTQVTVSS	high polyreactivity
QVQLVESGGGLVQAGGSLRLSCAASGFIFRYYAMGWYIQAPGKERELVATITRSGGSTYYADSVKGRFTLSRDNAKNTVYLQMNSLKPEDTAVYYCAADIYWYRGYGYWGQRTQVTVSS	high polyreactivity
QVQLEESGGGLVQAGGRLRLSCAASGITFGSYAMGWYRQAPGKERELVAAITRSDITNYADSVKGRFTISRDNAKNSVYLQMNRLNREDTAVYYCNKTPDRHRRYFGYGYWGHGTQVTVSS	low polyreactivity
QVQLVESGVGLVQAGGSLRLSCAASGNTFLPYAMGWYRQAPGKERELVAANSWSGGSTYYADSVKGRFTISRDNAKNTVYLQMNSLKPEETAVYYSARRRIGTPAYYYWGHGTQVTVSS	high polyreactivity
QVQLVESGGGLVQAGGSLRLSCAASGRIFYYNSKGWYRQAPGKERELVAAITSGDNTKYADSVKGRFTISRDKAKNTVYLQMNSLKPEDTAVYYCAARRYAPYQRRMDYWGQGTQVTVSS	high polyreactivity
QVQLVESGGGLVQAGGSLRLSCAASGFTFVNYAIGWYRQAPGKERELVAAIRRSGSRTYYADSVKGRFTISRDNAKNTVYLQMNSLKPEDTAVYYCAAVWYRLYGYWGQGTQVTVSS	low polyreactivity
QVQLVESGGGLVQAGGSLRLSCAASGFIFSRYAMGWYRQAAGKERELVAAISYSGSSTYYADSVKGRFTISRDNAKNTVFLQMNSLKPEDTGVYYCNAVTQITGSSDGDYWGQGTQVTVSS	high polyreactivity
QVQLVESGGGLVQAGGSLRLSCAASGRTFYLNAMGWYRQAPGKERELVAAISRNGGSTYYADSVKGRFTISRDNAKNTVYLQMNSLKPEDTAVYYCNKNWLGWADPSLDKRYDYWGQGTQVTVSS	high polyreactivity
QVQLVESGGGLVQAGGSLRLSCAASGFTFWKYAMGWYRQAPGKERELVAAISVSGGRTYYADSVKGRFTISRDNAKNTVYLQMNSLKPEDTAVYYCNATPWRPYVGGEYWGQGTQVTVSS	high polyreactivity
